Measured values as given in PMC10294441, “Characterization of 17β-estradiol-degrading enzyme from Microbacterium sp. MZT7 and its function on E2 biodegradation in wastewater” (Microbial Cell Factories, 2023).

Substrate: C[C@]12CC[C@@H]3c4ccc(O)cc4CC[C@H]3[C@@H]1CC[C@@H]2O
Assay: HPLC of estrone (E1) formation
Type: biochemical, Microbacterium resistens
Settings: NAD+ (500 μM in the general assay), pH 7, MSM, 30 °C in the general assay, E2 0.018–0.40 mM

B1: 17β-HSD-0095 (Microbacterium resistens) (protein)
chain: MPTDPALPDPEPTKGNTMNRYEGRRALVTGGGSGIGQATVLRMLAEGGRVVAADVSPAGLADTVEKAGNAAARLTTVEVNVADEASVKAAVATAVDALGGLDVLVNAAGILRSSHTAETTLEQFETILRVNLVGTFLMIRESIPALLDGQDAAVVNFSSTSAMFAHPYMAAYAASKGGVQSMTHALAAEYAKQGIRFTAVQPGSISSGMTDGSGRSGQSAGPGLPEDADMSLFLKLAPAIGQGFAGPEAVAGVVAMLASADGAFITGTEVRIDGGTHF
notes: about 35 kDa on SDS-PAGE
- Km: 480 µM
